The term Kd denotes the concentration at which binding is half-saturated. Read a low Kd as tighter binding. The koff is a measure of how fast the partners let go of each other. A word on the kon: it is the second-order rate constant of association.

Where a chain is given by its changes, count along the chain named.

Assay [1] deals with Human IL-23 (heterodimer of p19 and p40 subunits) (human) (UniProt P29460). Description: cell-based or functional assay.
For assay [2] the target is unchanged. Description: BIAcore SPR, antibody captured on protein A, human IL-23 flowed, HBS-EP pH 7.4, 25 C. On the technique in general: In SPR one partner is held on a chip, and binding of the other changes the refractive index at the surface.
Assay [3] addresses T1, Human IL-23 (heterodimer of p19 and p40 subunits) (human, UniProt P29460 23-328).
T1 sequence 1: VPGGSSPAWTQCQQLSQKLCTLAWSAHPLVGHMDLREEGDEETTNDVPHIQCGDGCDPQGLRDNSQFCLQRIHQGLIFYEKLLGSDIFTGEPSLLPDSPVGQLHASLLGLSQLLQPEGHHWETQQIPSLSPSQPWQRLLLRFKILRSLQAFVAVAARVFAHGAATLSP
T1 sequence 2: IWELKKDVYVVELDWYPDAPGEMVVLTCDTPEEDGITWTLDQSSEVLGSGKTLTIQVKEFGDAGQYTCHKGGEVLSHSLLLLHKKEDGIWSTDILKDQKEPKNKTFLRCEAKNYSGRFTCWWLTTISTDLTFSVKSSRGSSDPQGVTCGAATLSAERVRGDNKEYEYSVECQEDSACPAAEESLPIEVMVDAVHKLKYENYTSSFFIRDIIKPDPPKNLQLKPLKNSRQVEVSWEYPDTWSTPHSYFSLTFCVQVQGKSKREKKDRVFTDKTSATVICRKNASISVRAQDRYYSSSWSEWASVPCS
Kind of assay: cell-based or functional assay.

Assay [4] addresses T1, Human IL-23 (heterodimer of p19 and p40 …). Kind of assay: BIAcore SPR, antibody captured on protein A, human IL-23 flowed, HBS-EP pH 7.4, 25 C. How it is done:
Affinities of MAb3A8 and antibodies of the present invention are determined using BIAcore measurements (Table 3). BIAcore™ is an automated biosensor system that measures molecular interactions. (Karlsson, et al. (1991) J. Immunol. Methods 145: 229-240). In these experiments antibody is captured to a surface at low density on a BIAcore™ chip. Ethyl-dimethylaminopropyl-carbodiimide (EDC) is used to couple reactive amino groups to protein A to a flow cell of a carboxy-methyl (CM5) BIAcore™ sensor chip. Protein A is diluted in sodium acetate buffer, pH 4.5, and immobilized on a flow cell of a CM5 chip using EDC to yield 1000 response units. Unreacted sites are blocked with ethanolamine. A flow rate of 60 μl/min is used. Multiple binding/elution cycles are performed by injection a 10 μl solution of 2 μg/mL of the antibodies of the present invention. followed by human IL-23 at decreasing concentrations for each cycle (e.g. 1500, 750, 375, 188, 94, 47, 23.5, 12, and 0 picomolar). Elution is performed with glycine-HCl, pH 1.5. BIAevaluation™ is used to analyze the kinetic data.

On to “MAB1290, anti-human IL-23 monoclonal antibody, murine (R&D Systems)”, for which the IC50 Measured in the Murine Splenocyte Assay in assay [1] stood at 2800 pM. Besides, in assay [2], the Kd came out at 21.4 nM, the koff was 0.000768 s⁻¹ and the kon came to 36800 M⁻¹ s⁻¹.

B1: MAbQF20 (antibody, human IgG1, kappa, V domains shown)
VH: QVQLVQSGAEVKKPGASVKVSCKVSGKTFWSYGINWVRQAPGKGLEWMGYIYIGTGYTEPNPKYKGRVTMTEDTSTDTAYMELSSLRSEDTAVYYCATIGGYYGNFADWGQGTTVTVSS
VL: DVVMTQSPLSLPVTLGQPASISCRSSQSLLISGGKTYLNWFQQRPGQSPRRLIYLVSKLDQGVPDRFSGSGSGTDFTLKISRVEAEDVGVYYCWQGTYFPLTFGQGTKLEIKR
notes: Humanized antibody derived from MAb3A8
With B1, in assay [3], the “IC50 Measured in the Murine Splenocyte Assay” value came to 2 pM. Moreover, in assay [4], the Kd turned out to be 0.074 nM, the koff was 0.000115 s⁻¹ and the kon came to 1.55e+06 M⁻¹ s⁻¹.

B2: MAbQF37 (antibody, human IgG1, kappa, V domains shown)
VH: B1 VH with A107D, D108Q
VL: B1 VL
notes: as for B1
As for B2, in assay [3], the “IC50 Measured in the Murine Splenocyte Assay” value worked out at 2 pM. Besides, in assay [4], the Kd stood at 0.098 nM, the koff turned out to be 0.000153 s⁻¹ and the on-rate constant (kon) worked out at 1.55e+06 M⁻¹ s⁻¹.

These data come from patent publication US20090240036A1 (Eli Lilly, published 2009).
